Experimental data taken from US20100297664A1 (published 2010).

Key:
[1] = target: Δmot #4 403-679; test: BIACORE
[2] = target: full-length mortalin with an His tag (recombinant, expressed in Escherichia coli); test: BIACORE

Binder	Kd [1] [nM]	Kd [2] [nM]
Ab (52-3) (antibody, V domains shown) VH: QVQLQQPGAELVKPGASVKLSCKASGYTFTSYWMHWVKQRPGQGLEWIGEINPSNGRTNYNEKFKSKATLTVDKSSSTAYMQLSSLTSEDSAVYYCARSRYYGSCYFDYWGQGTTLTVSS VL: KIVMTQAAFSNPVTLGTSASISCRSSKSLLYSNGITYLYWYLQKPGQSPQLLIYQMSNLASGVPDRFSSSGSGTDFTLRISRVEAEDVGVYYCAQNLELPWTFGGGTKLEIK	4.61	–
anti-mortalin monoclonal antibody 52-3 (antibody, V domains shown) VH: QVQLQQPGAELVKPGASVKLSCKASGYTFTSYWMHWVKQRPGQGLEWIGEINPSNGRTNYNEKFKSKATLTVDKSSSTAYMQLSSLTSEDSAVYYCARSRYYGSCYFDYWGQGTTLTVSS VL: KIVMTQAAFSNPVTLGTSASISCRSSKSLLYSNGITYLYWYLQKPGQSPQLLIYQMSNLASGVPDRFSSSGSGTDFTLRISRVEAEDVGVYYCAQNLELPWTFGGGTKLEIK	–	8.17
